B1: Endogenous CD40 of LPS-stimulated murine ANA1 macrophage cells (receptor, UniProt P27512 20-289, looked up)
chain: LGQCVTCSDKQYLHDGQCCDLCQPGSRLTSHCTALEKTQCHPCDSGEFSAQWNREIRCHQHRHCEPNQGLRVKKEGTAESDTVCTCKEGQHCTSKDCEACAQHTPCIPGFGVMEMATETTDTVCHPCPVGFFSNQSSLFEKCYPWTSCEDKNLEVLQKGTSQTNVICGLKSRMRALLVIPVVMGILITIFGVFLYIKKVVKKPKDNEILPPAARRQDPQEMEDYPGHNTAAPVQETLHGCQPVTQEDGKESRISVQERQVTDSIALRPLV
notes: whole, on cells
B2: Peptide C (GCEVFGLGWRSYKH) (peptide)
peptide: GCEVFGLGWRSYKH
notes: Synthetic Hsp70 substrate peptide; also called peptide substrate; substrate peptide

Assays:
[1] = target: T1, Biotinylated recombinant Hsp70 (human, UniProt P0DMV8 2-641); test: fluorescence microscopy on LPS-stimulated ANA1 cells
T1 construct: mature; also called biotinylated Hsp70; biotin-labeled Hsp70; not shown: His tag
T1 sequence (P0DMV8 2-641): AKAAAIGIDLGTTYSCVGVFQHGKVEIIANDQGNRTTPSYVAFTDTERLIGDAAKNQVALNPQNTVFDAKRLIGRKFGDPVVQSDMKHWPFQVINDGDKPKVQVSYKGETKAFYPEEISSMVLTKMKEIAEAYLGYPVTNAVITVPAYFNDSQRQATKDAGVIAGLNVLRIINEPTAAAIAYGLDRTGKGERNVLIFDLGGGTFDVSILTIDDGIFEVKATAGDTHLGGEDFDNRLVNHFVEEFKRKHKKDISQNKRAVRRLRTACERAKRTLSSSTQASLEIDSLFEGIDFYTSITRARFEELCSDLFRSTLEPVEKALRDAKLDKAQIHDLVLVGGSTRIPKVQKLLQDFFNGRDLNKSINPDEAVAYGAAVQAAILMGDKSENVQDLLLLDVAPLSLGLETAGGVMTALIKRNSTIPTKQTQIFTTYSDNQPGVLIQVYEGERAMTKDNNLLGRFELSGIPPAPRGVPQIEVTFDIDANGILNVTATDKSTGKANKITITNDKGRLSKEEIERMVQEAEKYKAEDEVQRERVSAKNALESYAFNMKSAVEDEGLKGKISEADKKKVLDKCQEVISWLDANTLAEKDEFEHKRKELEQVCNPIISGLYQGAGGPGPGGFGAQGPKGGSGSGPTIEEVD
Experimental: ANA-1 cells were cultured in VLE-RPMI 1640 (Biochrom), supplemented with 10% FCS, 2 mM L-glutamine and antibiotics. For fluorescence microscopy, ANA1 cells were either stimulated with LPS (20 μg/ml, Sigma, Germany), or kept in an LPS-free medium (mock treatment) for 7 h. After stimulation, cells were harvested and incubated with 100 nM biotinylated Hsp70, biotinylated GST, or Hsp70/peptide C-biotin complex for 30 min at 0° C. in VLE-RPMI 1640. After incubation cells were processed for staining with streptavidin-TRITC (Sigma, Germany), fixed with paraformaldehyde and analyzed by fluorescence microscopy (Axiovert 35, Zeiss) as described (Sondermann et al., 2000). […] Twenty-four h post-transfection cells were incubated with 250 nM biotinylated Hsp70, biotinylated GST or Hsp70/peptide C-biotin complex for 30 min at 0° C. in DMEM, fixed, stained with streptavidin-TRITC (Sigma, Germany), and analyzed by fluorescence microscopy as described (Sondermann et al., 2000, idem). […] Stably transfected cell lines were analyzed by immunoblotting for CD40 expression using an anti-CD40 antibody (CSA180, Stressgen). […]

[2] = target: T2, Recombinant human His6-tagged Hsp70 (human, UniProt P0DMV8 2-641); test: titration of peptide C in the GST-CD40 pull-down of His6-Hsp70-ADP, quantified immunoblot
T2 construct: mature; also called His6-Hsp70; human Hsp70
T2 sequence (P0DMV8 2-641): as above
Experimental: For binding assays with recombinant Hsp70 and its domains, 3 μM His6-Hsp70 or its His6-tagged domains were incubated with 2 mM ATP, 2 mM ADP or 2 mM ADP and 28 μM peptide C in 50 μl binding buffer (10 mM MOPS/KOH, pH 7.2, 150 mM KCl and 3 mM MgCl2) for 30 min at 37° C. In competition experiments binding was probed with either a 10-fold excess of Hsp70, the two domains, or DnaK, or with a 5-fold excess of Hip or Bag 1 for 10 min at 0° C. To this end, Hsp70, N70, C70 and DnaK were preincubated with ADP, ATP and peptide C as described above. For comparison of CD40 binding of Hsp70 and its N-terminal domain, Hsp70 was preincubated in the presence or absence (mock treatment) of a 30-fold molar excess of peptide C. 3 μM of GST or GST-CD40 was added to the samples and incubated for 20 min at 16° C. For titration of peptide C, 5- to 50-fold excess of peptide C (15-150 μM) was added to the preincubation of Hsp70. Thereafter the samples were combined with 20 μl of 1% BSA-treated Glutathione Sepharose 4 Fast Flow and incubated in the presence of 2 mM DTT for another 20 min at 16° C. […] 10 μl of the eluates were subjected to SDS-PAGE and analyzed by immunoblotting using a Penta-His-antibody (Quiagen). Blot signals were quantified by Quantity One (Biorad).

Binder	binding result [1]	ka (saturable effect of peptide C on binding of Hsp70-ADP to CD40) [2] [µM]
B1	binds	
B2		~30
